Laboratory results as given in US20030207435A1.
Residue numbers refer to the chain shown, from its start. Names may count otherwise.

B1: wild-type human activated protein C, P04070 43-197; P04070 212-461 (enzyme)
light: ANSFLEELRHSSLERECIEEICDFEEAKEIFQNVDDTLAFWSKHVDGDQCLVLPLEHPCASLCCGHGTCIDGIGSFSCDCRSGWEGRFCQREVSFLNCSLDNGGCTHYCLEEVGWRRCSCAPGYKLGDDLLQCHPAVKFPCGRPWKRMEKKRSHL
heavy: LIDGKMTRRGDSPWQVVLLDSKKKLACGAVLIHPSWVLTAAHCMDESKKLLVRLGEYDLRRWEKWELDLDIKEVFVHPNYSKSTTDNDIALLHLAQPATLSQTIVPICLPDSGLAERELNQAGQETLVTGWGYHSSREKEAKRNRTFVLNFIKIPVVPHNECSEVMSNMVSENMLCAGILGDRQDACEGDSGGPMVASFHGTWFLVGLVSWGEGCGLLHNYGVYTKVSRYLDWIHGHIRDKEAPQKSWAP
modifications: here or on the partner: Asn-linked carbohydrate at three sites; vitamin K-dependent gamma-carboxylation of nine glutamic acid residues within the amino-terminal 45 residues (gla-domain); one erythro-beta-hydroxy-Asp; Asn-linked carbohydrate
B2: activated human protein C derivative S11G:Q32E:N33D:L194S, P04070 43-197; P04070 212-461 (enzyme)
light: B1 light with S11G, Q32E, N33D
heavy: B1 heavy with L25S
modifications: here or on the partner: Asn-linked oligosaccharides; gamma-carboxy-glutamates in the gla-domain; one erythro-beta-hydroxy-Asp; Asn-linked oligosaccharide
B3: activated human protein C derivative H10Q:S11G:Q32E:N33D:L194S, P04070 43-197; P04070 212-461 (enzyme)
light: B1 light with H10Q, S11G, Q32E, N33D
heavy: B1 heavy with L25S
modifications: here or on the partner: Asn-linked oligosaccharides; gamma-carboxy-glutamates in the gla-domain; one erythro-beta-hydroxy-Asp; Asn-linked oligosaccharide
B4: activated human protein C derivative S11G:Q32E:N33D:L194S:T254S, P04070 43-197; P04070 212-461 (enzyme)
light: B1 light with S11G, Q32E, N33D
heavy: B1 heavy with L25S, T85S
modifications: here or on the partner: Asn-linked oligosaccharides; gamma-carboxy-glutamates in the gla-domain; one erythro-beta-hydroxy-Asp; Asn-linked oligosaccharide
B5: activated human protein C derivative H10Q:S11G:Q32E:N33D:L194S:T254S, P04070 43-197; P04070 212-461 (enzyme)
light: B1 light with H10Q, S11G, Q32E, N33D
heavy: B1 heavy with L25S, T85S
modifications: here or on the partner: Asn-linked oligosaccharides; gamma-carboxy-glutamates in the gla-domain; one erythro-beta-hydroxy-Asp; Asn-linked oligosaccharide

How the values were obtained:
[1] = molecular target: serpins of rabbit plasma; test: cell-based or functional assay
[2] = molecular target: serpins of normal human plasma; test: cell-based or functional assay

| Binder | Inactivation in Plasma (t1/2 Relative to wt), Rabbit (x (relative to wt)) [1] | Inactivation in Plasma (t1/2 Relative to wt), Human (x (relative to wt)) [2] |
| --- | --- | --- |
| B1 | 1 | 1 |
| B2 | 8.5 | 5.8 |
| B3 | 8.5 | 5.9 |
| B4 | > 20 | 13 |
| B5 | > 20 | 8.5 |
